# Assay results from the DeepSol protein solubility set.
# Experiment: soluble on expression in E. coli; label from the status in PepcDB or PDB records
row,Sequence,soluble on expression in E. coli
1,MGSDKIHHHHHHMSEFDVAVIGAGPAGSSAAIRLAQNGMNVLLVERGDPPGTKNVSGAVLWGNELAKVVPDWERSAPVERYVTRKEVAFLTEKSKIAISFSSEELQNSKSGKIIVRGKFDQWLAKKAKDAGAMLVTGVTVDRLAIDNGKVIGIQQDNDVITADAVVVAEGANPRVLINSGLRPKLSDRDVALGIKETIKLPENVINERFNVDSKSGFASEFVLGFLDDGLLSGGFLYTNKDTVSLGIVASLDRLRANGVTHSYDIMGKFEEHPFIKNLIKDGIPDEYAAHLVPEGGISSMPKLYGNGYLVAGDAAAFTFSNGMVLQGINYAITSGILAADTIIENRNNINENTLAKYVDKLRESYVLSDLYNFNGIQNVTWSDFVQKSLPTLAESVMMSLFDEKGMPKKHLRQIVTDAMKSGHMKYSDLITNGYRVIKRM,not soluble
2,MGHHHHHHSHMRCQESMSAVLTAEQALKLVGEMFVYHMPFNRALGLELERYEKAFAQLAFNNQPMMVGNWAQSILHGGVIASALDVAAGLVCVGSTLTRHETISEDELRQRLSRMGTIDLRVDYLRPGRGNRFTATSSLLRAGNKVAVARVELHNEDQLYIASATATYMVG,not soluble
3,MKNKTKNATLKSIIDVILYENPSTQDEIAERLGITRRYVTKLLQPLIREGVVRRAYIVDIKKFDEFPELFGEEVTSREYAGSFFIKEILRDMAQHVCKQLNKSFRSLEEYDEDLANEALKMDYITNTMHEKVRSSVDTAIAMNPYSEFSKTMAFTEIAYDLERIGDHSAIIANFAIKESYEVDPAMMEYLRDMFSIAVEMVKTAMDAFLNEKLELKATLMSLEDDIHRIQKNALNCVATQMAETPFEDKERSTYYISLSRVVKTLERIADISIEIFDTAGEYYRNIPRTTTPERFRRREREES,soluble
4,MGSDKIHHHHHHMNTSGWGKYPEIEAQVLTPSSEKALQDLIGTGSYDGVTPRGLGRSYGDSSLGKLMVKTLRLNHMLSFELQSGLLHCQSGVSLAEILEVFVPRGWFLPVTPGTKLVTVGGAIASDIHGKNHHIDGCFCDHVDFLDLLTGSGEIIRCSPHEQAQLFHATCGGMGLTGIILSAAIRLTPIKSAYIDQVTFKSANLGESFELFEKQAEQPYSVAWIDCISSGDKLGRSLLMTGKHAQHGALAAHHNPGLSVPLDLPSFILNPYSIKAFNTLYYHKARQRETHATVHYDPFFYPLDGIGHWNRMYGKNGFTQYQFVIPKEAGLQAMDLILRTIVNSKKGSFLAVLKAFGKENRNLLSFPMEGYTLALDFKIEPDLFPLLDRLDAMVLDHGGRLYLTKDARMNAETFRKCYPKWEQFQNIRQQYGARHTFLSMQSQRLGLD,not soluble
5,MNINKKVTLQRIQTLTELHGAPGFEEEVKNYMTQQMAPYVDEFIENRMGGFFGVKKSKNPNAKRVMIAAHMDEIGFMITNITKNGMIQFTNLGGVANDIWQGQRLVIKNRNGDKIIGVVSNIPKHFRTGSEGAPEIKDLTLDIGAQNEDEVRERGIDIGDTIVPHTPFTQLSEHRYSAKAWDNRYGCVLAIEILELLKDIELDVDLYVGANVQEEVGLRGAKASAEMIDPDVAFVVDCSPANDVKGNQPLSGELGKGTLIRIKDGTMILKPVFRDYLLKLVEAHDIEHQYYMSPGGTDGGEIHKANIGIPTAVIGVCARYIHSTDSVFDIRDYFAARSLLSEAICNLDNNQIETLQYK,not soluble
6,MLRNLILITLLVASGHGQTPVIGGTCKLGTADVQIGGKQTQFFLKCETTADSAEGEGVWVVKSRAAAAPSSVPSVPAENTQPQQHPKARKPASPNICEQDNGARESEVCAVSATCLQAHNDFPSSYLQCDQTTLRWVRKSCQENFLFNFEQQTCIVPKRMSSLSRQQASGLVCTFSSCSNSNPCSVGTCNNGYCCSSGSNSGSAIIVGGGSSNCVGCQNAPQIITIPQNSCPGGGYSVGGCSSGYCATGYSCIQNQCCPSYNSAPRISVYTCPSGGNAVGACMSGRCASGYTCSNNVCCPQTTTTNPFVCPDGTQAAGGCVNGQCGTGYTCSNGLCCAGTSTTVKCLDGSDAVGACIPSCTGDGCGGVQVSYYCGSGYTCTTGNICCPINSCPNGGEVLGPTINGLCPTGYTVQGNLCCSATCTDGSTGLPSVNGVCIDGYSLTNGVCCPASVTCTDEISIGPCTGTGFNGGCPAGYACDSNQVNCCPVVRYTDESCQVGPAIDGLCPPGYVVVYIPNSPLITNGVNPGTCIDLQCTTGLCLTANQIGDCDTATDAGTCPTGYTCFTNAGICCSTTTFSRLRIGNSRQMAQKPNYGRPLHSYMPPPRPIGARCQLDGECVGQAEGLSMCHAGVCQCSPIAYTQGIACVRRKSFQMNDDPVIDAANDDKSSSSVSV,not soluble
7,MGDVSAVSSSGNILLPQQDEVGGLSEALKKAVEKHKTEYSGDKKDRDYGDAFVMHKETALPLLLAAWRHGAPAKSEHHNGNVSGLHHNGKSELRIAEKLLKVTAEKSVGLISAEAKVDKSAALLSSKNRPLESVSGKKLSADLKAVESVSEVTDNATGISDDNIKALPGDNKAIAGEGVRKEGAPLARDVAPARMAAANTGKPEDKDHKKVKDVSQLPLQPTTIADLSQLTGGDEKMPLAAQSKPMMTIFPTADGVKGEDSSLTYRFQRWGNDYSVNIQARQAGEFSLIPSNTQVEHRLHDQWQNGNPQRWHLTRDDQQNPQQQQHRQQSGEEDDA,not soluble
8,RTNQAGLELIGNAEGCRRDPYMCPAGVWTDGIGNTHGVTPGVRKTDQQIAADWEKNILIAERCINQHFRGKDMPDNAFSAMTSAAFNMGCNSLRTYYSKARGMRVETSIHKWAQKGEWVNMCNHLPDFVNSNGVPLRGLKIRREKERQLCLTGLVNEHHHHHH,soluble
9,MGSDKIHHHHHHMPSVVGHPQGNIEAIAFVIKFLEGLGFDIRITDIEKTEQPTIIAHYPGRLSDNKIVIYGHYDVAPVKELNSWVSEEAFTLENINGRLYGRGIADNKGPLMARMIALKSLILSDKAIPEILWLIQGEEEITQGDRVAHDIFKDEIPAFGAPVYIEETGFNDLDSNTQIAFLWSPDKSDSELIPWHSLLESSLDSPRIEYRHLNKLNGIKACPLLYNLPKNAVYMGFGPNDRLHFIHRDNESLNENKLLKHQQQFEKFLANYALYNDES,not soluble
10,MLTFLIPTAKEMTIPKESHPHLLPQDSQAILKIMAAMTTEDLAKSYRIKEESAKKEQQRWQDMASQQSLAYPAYQLFNGLMYRHIKRDKLTTQEQAYLTQQVYITSSFYGIIPANHPIAEHRHDFHTRIKIEGQSLKSYWRPCYNQFAKEHPQVISLLSSEFDDVFSKDCKQLWISPKFMAEKEGQFKTHSTISKKARGAFLTACMENNCQTVDSLKSLVFAGFYYHPDLSTDHEFVYIKKEA,not soluble
11,MGSDKIHHHHHHMAVRIVSRQPLTKGWSTDQKYKVQLEDGRLGLLRIAERPAYEAKRLEFQLVENLFGLGLPVAEPLSFWADDLSVYTLYEWVEGQDMNEVATSLSDSVLYDLGCQSGKFLRTLHALPIDQSQRDWNSFYQVKIDNKLAAYQAASHSYPTGPAMIDFVQANRHLLEGRPIAYHHGDFHTGNFLLGPDGKLKILDFDRYDIGDPWEEFNRLIFTADLSPAFARGQVDAYFDGAIPEEFWKLMALYVTVNCLAALSWAEQVDSEQIPMMKLQAQKISEWYEYFNHHLPKWYM,not soluble
12,MVNPQAGVVVGYWHNWCGGAGYKGGVAPCVSLAQVNPQYNVVDISFMKVYGATGSIPTFKLDPAVGLSEAQFIDQIGELNRQGRAVLIALGGADAHIELRKGQEHDLANEIIRLVEKYGFDGLDIDLEQAAVTAADNQIVIPAALRIVKDHYRKQQKNFLITMAPEFPYLTTGGKYVPYINALEGYYDWINPQFYNQGGDGIYIEGIGWIAQNNDSLKQEFIYHISDALVNGTNGFTKIPHDKLVFGIPTNIDAAATGYVSDPNALFAAFEQLKNQGQPLRGLMTWSVNWDMGKNAAGQAYNESFIKAYGPFIHGQDITPPEPENGKPIFSGLSNTRVKLGGTFNAMDGVSAYDEEDKDLTQQIQVTGDVNTNQIGLYPLTYKVTDSDNNTTEQVRTVEVYNTKPELSGVSNTTIILATPFDAMAGVSATDAEDGNLTPNIRVEGEVDSNRVGQYQLTYSVSDSAGEQTRAVRLVTVQEQGAVCENLWSASKIYLGGDTVNYAGKIWLAGWWTQGEQPDLAGEWGVWKSKGDSDCDSGLPPVITPNFTVSGLASSYILNQGQVSINFNVNTNQAMELTANLTQEQRILASTTATINGNGAMVLQAESLEAGAYQVVISAKDKNLTQSYNVSLVQGDDGSEPVEYPAYVAGNQYQAGNIVTNAGGVYQCRPWPNSGWCSGSAPYYAPGTGSAWQDAWTKHLEHHHHHH,soluble
13,MITLPQLITTDTDMTAGLTSGKTTGSAEDFLALLAGALGADGAQGKDARITLADLQAAGGKLSKELLTQHGEPGQAVKLADLLAQKANATDETLTDLTQAQHLLSTLTPSLKTSALAALSKTAQHDEKTPALSDEDLASLSALFAMLPGQPVATPVAGETPAENHIALPSLLRGDMPSAPQEETHTLSFSEHEKGKTEASLARASDDRATGPALTPLVVAAAATSAKVEVDSPPAPVTHGAAMPTLSSATAQPLPVASAPVLSAPLGSHEWQQTFSQQVMLFTRQGQQSAQLRLHPEELGQVHISLKLDDNQAQLQMVSPHSHVRAALEAALPMLRTQLAESGIQLGQSSISSESFAGQQQSSSQQQSSRAQHTDAFGAEDDIALAAPASLQAAARGNGAVDIFA,not soluble
14,MGSDKIHHHHHHMYSSAHSGSNESNLIAFPMAATSKTALLVQVDPFQSEVWSTALASQSITVIKEGADVDLSNMLGQMASAGLTLPDLIIVDMATEGMNPFAFCRFCREQHPSVKVLLTNSTQTQIAESEQRWAMSQGAQDLLPAFQTDSLLTDLLTALGRTSGVLGLPNLDQQALIQILPKLLEPKAEATETVALPAPSVAEPSVPPAPKAQRTYRGRPY,not soluble
15,MIDVPFLKNVTLKKENIPSFSAYPYCLPAIRTLQSLAFHPNVTFIIGENGTGKSTLLEGIAIALGFNAEGGTKNFRFSTNDSHSSLHEYLRISKSFNTPSDGFFLRAESFYNVASYIDEIDADLEARGNPVIDSYGGISLHEQSHGESFFSLFMNRFSGQGLYILDEPEAALSPMRQLSMLIRMHELAEQGSQFVIATHSPILMAYPESTIYSLTQEGIQESALEDTEHYQTTKLFFENRDRLFHHLFNSLEHHHHHH,soluble
16,MSLRTSYKIYCTYKNIHAWYDAIKCGIDAAVKELAEKGVTVDYEWYGPAQPDAVDQVNSIETAIGQGWDLIAVDVNQPELTGEAINNAVAKGIPVAVFGTSDVPNCDRAFFVGNTDPYGDGCALAKAVCEKMGGKGQIAILAGTIGALAHEERLRGFKDTIAKYPDIEIVDEQRDNDEVEKAISITESWLQAYPNLGGILCNNMSNPVGACQAVADAGKSGKIVIGGMDHDLRALNALKDGTLYVAQVQNCYDMGYKLIYNAIKTIDGEKVEESTAVGSTSVYAQDADKFINMLYGEANEGHHHHHH,soluble
17,MKRLILPIACGICTVTSDAQTDKQPHPNVIFIYADDLGYKDLSCTGSRFYETPHIDKLAREGVCFTQSYAACPVSSPSRAALLTGKYPARINLTDYIPGDRAYGPHKNQRLASLPFNLHLSKDEITMAEAFRQNGYSTFMAGKWHLAESAEYYPEQNGFDINIGGNNTGHPSKGYFSPYGNPQLKDGPEGEYLTDRLTDEVIRYISEPKEKPFFVYLSYYTVHLPLQAKAEKIAKYRRKLSRAVPADSSFVKKGETYHKLVQDIPAYAAMVESLDENIGRLLDTLHRSGLDERTIVVFTSDNGGMATSNTTRNIPTSNLPLRAGKGYLYEGGIKVPAIIRWSGHLKGRQVSDTPIIGTDYYPTLLDLCGLPLLPGQHVDGVSMKPVLQGGRLSRPSLFWHYPHYSGGLGGRPSAAIREGDYKLIEFFEDHHVELYNVIQDESEEKDLSQIYPEIADGLRKKLYLWYKEVGARMPVDNPHYVSPVKDSDSFENKLEHHHHHH,not soluble
18,MSLTKRWFNVGKIVNTHGIKGEVRVISKTDFAEERYKPGNTLYLFMDGRNEPVEVTVNTHRLHKQFHLLQFKEGQNLNEVEELKNAIIKVPEEELGELNEGEFYFHEIIGCEVFTEEGELIGKVKEILTPGANDVWVIGRKGKKDALIPYIESVVKHIDVREKKIEIELMEGLIDEEGGSHHHHHH,soluble
